Data taken from patent EP1040351B1 (Merck & Co., Inc., dated 2007).

Legend:
[1] = biological target: anti-Myc mAb-HRP conjugate (Invitrogen); assay: competition ELISA: anti-Myc mAb-HRP on coated Myc peptide, 10x diluted c-ART-b sample as competitor
[2] = biological target: T1, human melanocortin-3 receptor (human, UniProt P41968 1-323); assay: displacement of 0.2 nM 125I-NDP-α-MSH from membranes of cells stably expressing human MC3R, filtration
T1 construct: whole, on cells; Membrane preparations of stably expressing cells; also called hMC3R; MC3R

[3] = biological target: T2, human melanocortin-4 receptor (human, UniProt P32245 1-332); assay: displacement of 0.2 nM 125I-NDP-α-MSH from membranes of cells stably expressing human MC4R, filtration
T2 construct: whole, on cells; Membrane preparations of stably expressing cells; also called hMC4R; MC4R
T2 sequence (P32245 whole entry): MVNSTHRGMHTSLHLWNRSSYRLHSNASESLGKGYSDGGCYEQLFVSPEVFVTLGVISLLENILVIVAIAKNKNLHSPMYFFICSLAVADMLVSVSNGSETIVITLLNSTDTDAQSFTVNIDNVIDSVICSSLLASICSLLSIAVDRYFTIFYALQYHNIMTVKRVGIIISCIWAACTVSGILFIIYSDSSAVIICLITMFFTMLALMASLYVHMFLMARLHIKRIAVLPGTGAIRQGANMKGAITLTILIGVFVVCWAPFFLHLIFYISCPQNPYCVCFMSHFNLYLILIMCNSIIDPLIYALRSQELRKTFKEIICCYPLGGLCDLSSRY

T1 sequence (P41968 whole entry): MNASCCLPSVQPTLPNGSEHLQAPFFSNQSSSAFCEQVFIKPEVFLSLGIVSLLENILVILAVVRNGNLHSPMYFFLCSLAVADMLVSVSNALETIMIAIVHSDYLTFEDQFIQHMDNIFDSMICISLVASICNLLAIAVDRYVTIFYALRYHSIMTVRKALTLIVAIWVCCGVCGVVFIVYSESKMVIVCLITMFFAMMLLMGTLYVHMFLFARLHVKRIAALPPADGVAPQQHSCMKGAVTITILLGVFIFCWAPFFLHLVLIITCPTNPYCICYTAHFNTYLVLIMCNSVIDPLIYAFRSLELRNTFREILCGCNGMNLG

absorbance [1]	IC50 [2]	IC50 [3]	Molecule
0.079	1.9 nM	1.4 nM	c-ART-b (from UniProt O00253 1-26; O00253 76-132) (ligand)
	1 nM	0.5 nM	full-length human ART protein (ligand, UniProt O00253 21-132, looked up, not shown: small tags and cut ends, range 1-132; Recombinant ART as described by Fong et al. 1997 (ART cDNA in pcDNA3.1-Myc-His-A); also called full length ART; full-length ART protein) AQMGLAPMEGIRRPDQALLPELPGLGLRAPLKKTTAEQAEEDLLQEAQALAEVLDLQDREPRSSRRCVRLHESCLGQQVPCCDPCATCYCRFFNAFCYCRKLGTAMNPCSRT
